Assays:
HLA-B*15:01 = experiment: IEDB peptide-MHC binding, purified MHC/competitive/fluorescence; filed as Kd, often an IC50 or EC50 that approximates it; ≥ and ≤ were set here for values at or beyond the usual limits of such assays
HLA-A*29:02 = experiment: as above
HLA-B*46:01 = experiment: as above
HLA-B*18:01 = experiment: as above
HLA-B*15:17 = experiment: as above
HLA-A*03:01 = experiment: as above
HLA-A*68:02 = experiment: as above
HLA-B*39:01 = experiment: as above
HLA-B*51:01 = experiment: as above
HLA-A*02:19 = experiment: as above
HLA-A*02:16 = experiment: as above
HLA-A*26:01 = experiment: as above
HLA-B*57:01 = experiment: as above
HLA-B*27:03 = experiment: as above
HLA-A*02:11 = experiment: as above
HLA-A*69:01 = experiment: as above
HLA-A*24:03 = experiment: as above
HLA-A*02:12 = experiment: as above
HLA-A*02:01 = experiment: as above
HLA-A*02:03 = experiment: as above
HLA-A*23:01 = experiment: as above
HLA-B*58:01 = experiment: as above; conditions: source organism: Yersinia pestis Nepal516
HLA-A*11:01 = experiment: IEDB peptide-MHC binding, purified MHC/direct/fluorescence; filed as Kd, often an IC50 or EC50 that approximates it; ≥ and ≤ were set here for values at or beyond the usual limits of such assays; conditions: source organism: dengue virus type 4
HLA-A*31:01 = experiment: IEDB peptide-MHC binding, purified MHC/competitive/fluorescence; filed as Kd, often an IC50 or EC50 that approximates it; ≥ and ≤ were set here for values at or beyond the usual limits of such assays; conditions: source organism: dengue virus type 4
[1] = source organism: Bacillus anthracis str. 'Ames Ancestor'
[2] = source organism: Rickettsia typhi str. Wilmington
[3] = source organism: Shigella boydii CDC 3083-94

MTQNISNDK
Kd (HLA-B*15:01; [1]): ≥ 20 µM
Kd (HLA-A*29:02; [1]): ≥ 20 µM
Kd (HLA-B*46:01; [1]): ≥ 20 µM
Kd (HLA-B*18:01; [1]): ≥ 20 µM
Kd (HLA-B*15:17; [1]): ≥ 20 µM
Kd (HLA-A*03:01; [1]): 6 µM
Kd (HLA-A*68:02; [1]): ≥ 20 µM
Kd (HLA-B*39:01; [1]): ≥ 20 µM
Kd (HLA-B*51:01; [1]): ≥ 20 µM
Kd (HLA-A*02:19; [1]): ≥ 20 µM
Kd (HLA-A*02:16; [1]): ≥ 20 µM
Kd (HLA-A*26:01; [1]): ≥ 20 µM
Kd (HLA-B*57:01; [1]): ≥ 20 µM
Kd (HLA-B*27:03; [1]): ≥ 20 µM
Kd (HLA-A*02:11; [1]): ≥ 20 µM
Kd (HLA-A*69:01; [1]): ≥ 20 µM
Kd (HLA-A*24:03; [1]): ≥ 20 µM
Kd (HLA-A*02:12; [1]): ≥ 20 µM
Kd (HLA-A*02:01; [1]): ≥ 20 µM
Kd (HLA-A*02:03; [1]): ≥ 20 µM

QLEVRSTEV
Kd (HLA-B*15:01; [2]): ≥ 20 µM
Kd (HLA-A*29:02; [2]): ≥ 20 µM
Kd (HLA-A*23:01; [2]): ≥ 20 µM
Kd (HLA-B*46:01; [2]): ≥ 20 µM
Kd (HLA-B*18:01; [2]): ≥ 20 µM
Kd (HLA-B*15:17; [2]): ≥ 20 µM
Kd (HLA-A*03:01; [2]): ≥ 20 µM
Kd (HLA-B*39:01; [2]): ≥ 20 µM
Kd (HLA-B*51:01; [2]): ≥ 20 µM
Kd (HLA-A*02:16; [2]): ≥ 20 µM
Kd (HLA-A*26:01; [2]): ≥ 20 µM
Kd (HLA-B*57:01; [2]): ≥ 20 µM
Kd (HLA-B*27:03; [2]): ≥ 20 µM
Kd (HLA-A*02:11; [2]): ≥ 20 µM
Kd (HLA-A*24:03; [2]): ≥ 20 µM
Kd (HLA-A*02:12; [2]): 0.43 µM
Kd (HLA-A*02:01; [2]): ≥ 20 µM

RNNDPTLPY
Kd (HLA-A*23:01; [3]): ≥ 20 µM
Kd (HLA-B*46:01; [3]): ≥ 20 µM
Kd (HLA-B*18:01; [3]): ≥ 20 µM
Kd (HLA-B*15:17; [3]): ≥ 20 µM
Kd (HLA-A*68:02; [3]): ≥ 20 µM
Kd (HLA-B*39:01; [3]): ≥ 20 µM
Kd (HLA-B*51:01; [3]): ≥ 20 µM
Kd (HLA-A*02:19; [3]): ≥ 20 µM
Kd (HLA-A*02:16; [3]): ≥ 20 µM
Kd (HLA-A*26:01; [3]): ≥ 20 µM
Kd (HLA-B*57:01; [3]): ≥ 20 µM
Kd (HLA-B*27:03; [3]): ≥ 20 µM
Kd (HLA-A*69:01; [3]): ≥ 20 µM
Kd (HLA-A*24:03; [3]): ≥ 20 µM
Kd (HLA-A*02:12; [3]): ≥ 20 µM
Kd (HLA-A*02:01; [3]): ≥ 20 µM
Kd (HLA-A*02:03; [3]): ≥ 20 µM

RSSKLVMRY
Kd (HLA-B*58:01): 0.0183 µM

VVTLIPLCR
Kd (HLA-A*11:01): 0.454 µM
Kd (HLA-A*31:01): 0.0301 µM

Source: the Immune Epitope Database (IEDB)
